Earlier results in article PMC3416746.

Legend:
[1] = target: mDia1 N-terminus (Mus musculus) (UniProt O08808)
[2] = target: mDia1 DID DID (Mus musculus) (UniProt O08808)

Row | Kd [1] [µM] | Kd [2] [µM] | Substance
1 | 0.006 |  | RhoA (from UniProt P61586)
2 |  | 0.15 | mDia1 DAD DAD (from UniProt O08808)
